Assay: Viscosity of the surfactant preparation
Assay type: physicochemical
Settings: mixed with a phospholipid mixture consisting of DPPC:POPG 7:3 (w/w)
Source text: Advantageously the viscosity of said formulations is less than 20 centiPoise (cP), preferably less than 15 cP, upon determination with a common viscometer available on the market according to methods known in the art.

## CWLCRALIKRFNRYLTPQLVCRLVLRC [ox Mini-B27, SP-B analogue of formula (III), shorter analogue of ox Mini-B(Leu)]
  viscosity of the preparation: viscous
